# pIC50: −log10 of the molar value.
# Tests used:
# Test in all cases: IEDB peptide-MHC binding, purified MHC/competitive/radioactivity; ≥ and ≤ were set here for values at or beyond the usual limits of such assays
# Conditions in all cases: source organism: Hepatitis B virus
# HLA-A*01:01 = target: HLA-A*01:01
# HLA-A*29:02 = target: HLA-A*29:02
# HLA-A*30:02 = target: HLA-A*30:02
# HLA-B*51:01 = target: HLA-B*51:01
# HLA-B*53:01 = target: HLA-B*53:01
# HLA-B*54:01 = target: HLA-B*54:01
# HLA-A*68:01 = target: HLA-A*68:01
# HLA-A*24:02 = target: HLA-A*24:02
# HLA-A*23:01 = target: HLA-A*23:01
# HLA-A*31:01 = target: HLA-A*31:01
# HLA-A*33:01 = target: HLA-A*33:01
# HLA-B*35:01 = target: HLA-B*35:01
# HLA-A*02:02 = target: HLA-A*02:02
# HLA-A*02:06 = target: HLA-A*02:06
# HLA-A*68:02 = target: HLA-A*68:02
# HLA-A*02:03 = target: HLA-A*02:03
sequence,measurement,setting,value
ASFCGSPY,pIC50,HLA-A*01:01,7.29
same,pIC50,HLA-A*29:02,7.06
same,pIC50,HLA-A*30:02,8.37
FPHCLAFSYM,pIC50,HLA-B*51:01,7.16
same,pIC50,HLA-B*53:01,6.89
same,pIC50,HLA-B*54:01,6.67
HTLWKAGILYK,pIC50,HLA-A*68:01,7.32
LSLDVSAAFY,pIC50,HLA-A*01:01,6.48
same,pIC50,HLA-A*29:02,7.35
LWFHISCLTF,pIC50,HLA-A*24:02,8.19
same,pIC50,HLA-A*23:01,8.11
QAFTFSPTYK,pIC50,HLA-A*68:01,8.15
RFSWLSLLVPF,pIC50,HLA-A*24:02,7.00
same,pIC50,HLA-A*23:01,7.90
RWMCLRRFII,pIC50,HLA-A*23:01,8.12
SAICSVVRR,pIC50,HLA-A*68:01,7.64
STLPETTVVRR,pIC50,HLA-A*31:01,6.72
same,pIC50,HLA-A*33:01,6.73
TPARVTGGVF,pIC50,HLA-B*35:01,7.15
WMMWYWGPSLY,pIC50,HLA-A*29:02,6.87
same,pIC50,HLA-A*30:02,7.33
YMDDVVLGV,pIC50,HLA-A*02:02,7.04
same,pIC50,HLA-A*02:06,7.04
same,pIC50,HLA-A*68:02,6.38
same,pIC50,HLA-A*02:03,7.94
YPALMPLYACI,pIC50,HLA-B*51:01,6.92
same,pIC50,HLA-B*54:01,6.95
